Data as given in patent publication US20180339041A1 (Kyowa Kirin, published 2018).
Each block holds one binder with its values, some of them ahead of it.

Assays:
[1] = biological target: T1, human protein S (derived from human serum; Enzyme Research Laboratories) (human, UniProt P07225 42-676); assay: ELISA: human protein S coated directly on the plate (2 µg/mL); biotinylated test antibody; streptavidin-HRP/TMB (Example 6, method of Example 5(5)) [F]
T1 construct: Homologue of Gas6 used as specificity control
T1 sequence (looked up): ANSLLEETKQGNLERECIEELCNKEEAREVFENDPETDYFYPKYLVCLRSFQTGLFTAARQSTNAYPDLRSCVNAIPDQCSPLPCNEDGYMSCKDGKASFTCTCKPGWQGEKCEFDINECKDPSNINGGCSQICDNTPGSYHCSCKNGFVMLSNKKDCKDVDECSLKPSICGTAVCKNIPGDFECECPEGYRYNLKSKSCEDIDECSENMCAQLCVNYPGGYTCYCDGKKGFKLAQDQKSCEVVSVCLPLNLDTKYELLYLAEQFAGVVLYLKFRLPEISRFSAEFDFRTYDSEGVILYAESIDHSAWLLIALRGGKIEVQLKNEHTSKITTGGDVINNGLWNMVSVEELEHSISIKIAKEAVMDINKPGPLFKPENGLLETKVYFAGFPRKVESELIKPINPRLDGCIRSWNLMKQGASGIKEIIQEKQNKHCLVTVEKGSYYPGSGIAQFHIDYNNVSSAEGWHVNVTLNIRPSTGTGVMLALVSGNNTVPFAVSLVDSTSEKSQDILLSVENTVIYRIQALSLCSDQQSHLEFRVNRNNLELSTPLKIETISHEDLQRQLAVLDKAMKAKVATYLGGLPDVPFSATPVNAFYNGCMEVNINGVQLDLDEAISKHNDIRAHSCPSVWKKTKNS
Description: First, a 2 μg/mL solution of the antigen (prepared from each antigen with PBS (manufactured by Nacalai Tesque, Inc.)) was dispensed at 50 μL/well to a 96-well plate for ELISA (manufactured by Nalge Nunc International), and the plate was left standing overnight at 4° C. for adsorption. The plate was washed five times with Tween 20-PBS. Then, 1% BSA-PBS (manufactured by Nacalai Tesque, Inc.) was added thereto at 300 μL/well, and the plate was left standing at room temperature for 1 hour for blocking and washed five times with Tween 20-PBS (manufactured by Wako Pure Chemical Industries Ltd.). Next, the hybridoma culture supernatant was dispensed thereto as a test substance at 50 μL/well, and the plate was left standing at room temperature for 1 hour and then washed five times with Tween 20-PBS. Next, polyclonal goat anti-mouse immunoglobulins/HRP (Dako Denmark A/S, P0447) diluted 2000-fold with 1% BSA-PBS was dispensed thereto at 50 μL/well, and the plate was left standing at room temperature for 1 hour. The plate was washed five times with Tween 20-PBS, and TMB (manufactured by Sigma-Aldrich Co. LLC) was added thereto at 50 μL/well and reacted. At an appropriate point in time, the reaction was terminated by the addition of 1 N hydrochloric acid (manufactured by Wako Pure Chemical Industries Ltd.) at 50 μL/well. The absorbance at a sample wavelength of 450 nm and a reference wavelength of 570 nm (450 nm-570 nm) was measured using a plate reader (Spectra Max, manufactured by Molecular Devices, LLC).
The binding activity of the obtained antibodies against human protein S was measured in the same way as in Example 5(5). […] The secondary detection reagent used was Streptavidin HRP Conjugate (manufactured by R&D Systems, Inc.) diluted 200-fold with 1% BSA-PBS.

[2] = biological target: T2, C-terminally FLAG-tagged human Gas6 recombinant protein (hGas6-F) (human, UniProt Q14393 31-678, gamma-carboxylated glutamic acid residues in the Gla domain (producer cells co-express rat VKOR and human GGCX); positions not given); assay: ELISA, Gas6-F captured by anti-FLAG, biotinylated antibody
T2 construct: also called human Gas6-F; human Gas6 protein
T2 sequence: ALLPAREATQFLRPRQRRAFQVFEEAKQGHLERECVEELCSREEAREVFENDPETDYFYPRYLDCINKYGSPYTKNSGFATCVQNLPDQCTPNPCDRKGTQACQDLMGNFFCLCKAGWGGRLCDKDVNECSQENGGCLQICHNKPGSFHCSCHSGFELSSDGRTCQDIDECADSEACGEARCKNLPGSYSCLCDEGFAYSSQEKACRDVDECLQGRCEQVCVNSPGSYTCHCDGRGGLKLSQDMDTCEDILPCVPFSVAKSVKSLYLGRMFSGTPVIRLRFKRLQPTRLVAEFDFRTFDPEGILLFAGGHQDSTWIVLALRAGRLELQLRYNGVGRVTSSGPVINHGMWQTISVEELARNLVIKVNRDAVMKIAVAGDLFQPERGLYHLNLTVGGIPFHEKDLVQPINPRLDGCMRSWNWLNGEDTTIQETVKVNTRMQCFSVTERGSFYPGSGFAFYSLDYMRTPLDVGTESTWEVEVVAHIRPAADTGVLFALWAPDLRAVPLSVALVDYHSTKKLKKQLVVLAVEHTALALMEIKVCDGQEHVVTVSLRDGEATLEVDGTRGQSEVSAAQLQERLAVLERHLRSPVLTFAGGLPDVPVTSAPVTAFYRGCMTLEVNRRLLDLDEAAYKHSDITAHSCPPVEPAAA
Description: After removal of the immobilization solution, 1% BSA-PBS (manufactured by Nacalai Tesque, Inc.) was added thereto at 300 μL/well, and the plate was left standing at room temperature for 1 hour for blocking and washed five times with Tween 20-PBS (manufactured by Wako Pure Chemical Industries Ltd.).
(§1) Each antibody solution was dispensed thereto at 50 μL/well, and the plate was left standing at room temperature for 1 hour. This plate was washed five times with Tween 20-PBS. Then, Streptavidin HRP Conjugate (manufactured by R&D Systems, Inc.) diluted 200-fold with 1% BSA-PBS was dispensed thereto at 50 μL/well, and the plate was left standing at room temperature for 1 hour. This plate was washed five times with Tween 20-PBS, and TMB (manufactured by Sigma-Aldrich Co. LLC) was added thereto at 50 μL/well and reacted. At an appropriate point in time, the reaction was terminated by the addition of 1 N hydrochloric acid (manufactured by Wako Pure Chemical Industries Ltd.) at 50 μL/well. The absorbance at a sample wavelength of 450 nm and a reference wavelength of 570 nm (450 nm-570 nm) was measured using a plate reader.

[3] = biological target: T2, C-terminally FLAG-tagged human Gas6 …; assay: SPR Biacore T100, captured antibody, Gas6 analyte, first test
Description: (§2) An anti-human IgG antibody was immobilized on a CM5 sensor chip (manufactured by GE Healthcare Japan Corp.) using Human Antibody Capture Kit (manufactured by GE Healthcare Japan Corp.) according to the attached manual. Each test antibody adjusted to 1 μg/mL was added for 10 seconds at a flow rate of 10 μL/min to flow cells. […] The measurement was performed by the […] method. The obtained sensorgram was analyzed using Bia Evaluation Software (manufactured by GE Healthcare Japan Corp.), and the kinetic constant of each antibody was calculated.

[4] = biological target: T2, C-terminally FLAG-tagged human Gas6 …; assay: as above; remark: listed apart in the source
Description: The measurement instrument used was Biacore® T100 (manufactured by GE Healthcare Japan Corp.).
as §2

[5] = biological target: T3, hGas6-FH-L314A, Q315A, P316A (alanine substitution variant) (human, UniProt Q14393 1-678); assay: ELISA, variant captured by anti-FLAG, biotinylated antibody
T3 construct: Limits of the deletion derived as for hGas6-FH; also called alanine variant
T3 chain: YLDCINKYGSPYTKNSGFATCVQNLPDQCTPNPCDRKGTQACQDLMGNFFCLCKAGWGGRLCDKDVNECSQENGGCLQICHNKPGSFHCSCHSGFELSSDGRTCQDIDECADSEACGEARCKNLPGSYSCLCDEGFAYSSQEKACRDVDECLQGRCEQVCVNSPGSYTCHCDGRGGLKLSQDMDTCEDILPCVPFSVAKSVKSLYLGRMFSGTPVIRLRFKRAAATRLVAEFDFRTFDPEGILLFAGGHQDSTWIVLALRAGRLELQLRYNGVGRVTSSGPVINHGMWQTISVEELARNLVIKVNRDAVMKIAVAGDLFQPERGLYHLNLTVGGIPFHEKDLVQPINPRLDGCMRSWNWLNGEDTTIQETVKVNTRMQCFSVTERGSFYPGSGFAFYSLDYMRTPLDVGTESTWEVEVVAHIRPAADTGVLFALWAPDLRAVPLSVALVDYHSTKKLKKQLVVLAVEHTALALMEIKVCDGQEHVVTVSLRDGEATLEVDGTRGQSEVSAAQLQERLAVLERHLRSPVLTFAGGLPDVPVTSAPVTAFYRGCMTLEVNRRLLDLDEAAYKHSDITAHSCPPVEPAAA
Description: First, 2 μg/mL anti-FLAG antibody [Monoclonal ANTI-FLAG M2 antibody produced in mouse (manufactured by Sigma-Aldrich Co. LLC) diluted with PBS (manufactured by Nacalai Tesque, Inc.)] was dispensed at 50 μL/well to a 96-well plate for ELISA (manufactured by Nalge Nunc International), and the plate was left standing overnight at 4° C. for adsorption. After removal of the immobilization solution, 1% BSA-PBS (manufactured by Nacalai Tesque, Inc.) was added thereto at 300 μL/well, and the plate was left standing at room temperature for 1 hour for blocking and washed five times with Tween 20-PBS (manufactured by Wako Pure Chemical Industries Ltd.).
as §1, with “At an appropriate point in time, the reaction was terminated by the addition of 1 N hydrochloric acid (manufactured by Wako Pure Chemical Industries Ltd.) at 50 μL/well.” left out

B2: hzKM5321 LV0HV0 antibody (antibody, V domains shown)
VH: QVHLVQSGSELKKPGASVKISCKASGYTFTNYGMNWVRQAPGQGLEWMGWINTNTGEPTYTEEFKGRFVFSLDTSVTTSYLQISTLKAEDTAVYFCARDEGWFVYWGQGTLVTVSS
VL: ETTLTQSPSSLSASVGDRVTITCITSTDIDDDMNWYQQKPGKAPKLLISEGNTLRPGVPSRFSGSGSGTDFTLTISSLQPEDFATYYCLQTDSVPLTFGQGTKVEIK
notes: Humanized; variant human IgG4 constant region (EU S228P, L235E, R409K), human kappa; also called B-02; LV0HV0
Kd [3]: < 3.57 nM
koff [3]: 0.000468 s⁻¹
kon [3]: > 131000 M⁻¹ s⁻¹
fold increase of KD against the KM5321 chimeric antibody [4]: ~3 fold
fold increase of kd against the KM5321 chimeric antibody [4]: ~3 fold

B3: anti-human Gas6 mouse-rat chimeric antibody KM5320-rKG1 (antibody, V domains shown)
VH: QIQLVQSGPELKKPGETVKISCKASGYTFTNYGMNWVKQAPGKGLKWMGWINTETGEPTYSDDFKGRFAFSLETSATTAYLQINNLRNEDMATYFCAREDGYYGTLDYWGQGTSVTVSS
VL: SIVMTQTPKFLLVSAGDRVTITCKASQSVSNDVAWYQQKPGQSPKVLIYYASNRYTGVPDRFTGSGYGTDFTFTISTVQAEDLAVYFCQQDYSSPWTFGGGTKLEIK
notes: 92 and 94 are not tied in words; also called KM5320-rKG1 antibody
binding result [5]: no binding

Further lines, results first:

binding result [1]: no binding (tested: 5 µg/mL)
antibody concentration at which binding activity was detected [2]: 0.04 µg/mL
binding activity at 5 µg/mL against the largest activity of KM5320-mKG1 and KM5321-mKG1 [2]: < 0.5 fold
B1: CNTO antibody (anti-Gas6 monoclonal antibody WG1 of U.S. Pat. No. 7,547,767, remade) (antibody, V domains shown)
VH: QVQLVESGGGVVQPGRSLRLSCAASGFTFSSYGMHWVRQAPGKGLEWVAVIWYDGSNKYYADSVKGRFTISRDNSKNTLYLQMNSLRAEDTAMYFCAREGFYYDILTAYSLEYFQHWGQGTLVTVSS
VL: EIVLTQSPDFQSVTPKEKVTITCRASQSIGSSLHWYQQKPDQSPKLLIKYASQSFSGVPSRFSGSGSGTDFTLTINSLEAEDAAAYYCHQSSSLPYTFGQGTKLEIK
notes: Expressed from vector pKANTEX93 in CHO; also called CNT0300

binding result [5]: no binding
B4: anti-human Gas6 mouse-rat chimeric antibody KM5321-rKG1 (antibody, V domains shown)
VH: QIQLVQSGPELKKPGETVKISCRASGYTFTNYGMNWVKQAPGKGLKWMGWINTNTGEPTYTEEFKGRFAFSLETSATTAYLQINDLKNEDTATYFCARDEGWFVYWGQGTLITVSA
VL: ETTVTQSPASLSVATGEKVTIRCITSTDIDDDMNWYQQKPGEPPKLLISEGNTLRPGVPSRFSSSGYGTDFVFTIENTLSEDVADYYCLQTDSVPLTFGAGTKLELK
notes: 96 and 98 are not tied in words; also called KM5321-rKG1 antibody
